Entries after “also recorded” stand apart in the source; their conditions may differ.

Results on one molecule are retold here after US20250339501A1, “COMPOSITIONS AND METHODS FOR TREATING METABOLIC DISEASE” (The Regents of the University of California, priority 2021, published 2025).

The experiment concerns JNK. Kind of experiment: TNFα-induced JNK phosphorylation in HepG2 cells. It counts as cell-based. As to conditions: human HepG2 liver cells. The source says:
As described above, Dj1 administration stimulates AMPK phosphorylation in the liver cells. However, elevated AMPK phosphorylation in vivo was not observed (data not shown). Numerous studies have reported that the c-Jun N terminal kinase (JNK) is critical to the development of steatosis and chronic liver injury in NAFLD (22-25). […] However, not all MAPK pathways were activated. For example, phosphorylation of p42 was not altered by tDj1 treatment (FIG. 6O). Both rDj1 and tDj1 suppressed TNFα and Anisomycin-induced JNK (p54 and p46) phosphorylation in human HepG2 and mouse AML12 liver cells, respectively (FIGS. 6C-6D).

B1: rDj1: full-length recombinant Dj1 protein; mouse protein (Novus, NBP2-59523) injected in mice, human protein used in HepG2 cells (protein, UniProt Q99LX0 1-189, looked up)
chain: MASKRALVILAKGAEEMETVIPVDVMRRAGIKVTVAGLAGKDPVQCSRDVMICPDTSLEDAKTQGPYDVVVLPGGNLGAQNLSESPMVKEILKEQESRKGLIAAICAGPTALLAHEVGFGCKVTTHPLAKDKMMNGSHYSYSESRVEKDGLILTSRGPGTSFEFALAIVEALVGKDMANQVKAPLVLKD
modifications: full-length
notes: full-length recombinant Dj1 protein; mouse protein (Novus, NBP2-59523) injected in mice, human protein used in HepG2 cells
For the molecule B1, the “TNFα-induced JNK (p54 and p46) phosphorylation” value is given as “suppressed; also recorded: inhibits”.
